Legend:
Assay in all cases: EMSA
Details in all cases: EMSA conditions not in material; end-labelled fragments pre-incubated with Fis and/or FNR before RNA polymerase
[1] = molecular target: T1, FNR D154A D154A (Escherichia coli K-12?) (UniProt P0A9E5)
T1 sequence: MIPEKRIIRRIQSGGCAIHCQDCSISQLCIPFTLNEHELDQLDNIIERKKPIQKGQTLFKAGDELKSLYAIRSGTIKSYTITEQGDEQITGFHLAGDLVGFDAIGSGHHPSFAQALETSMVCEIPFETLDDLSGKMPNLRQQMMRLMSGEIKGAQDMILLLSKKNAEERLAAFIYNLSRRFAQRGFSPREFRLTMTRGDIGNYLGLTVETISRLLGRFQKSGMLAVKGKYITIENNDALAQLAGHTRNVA

[2] = molecular target: Fis;FNR D154A D154A (Escherichia coli K-12?;Escherichia coli K-12?) (UniProt P0A6R3+P0A9E5)
[3] = molecular target: T2, Fis (Escherichia coli K-12?) (UniProt P0A6R3)
T2 sequence: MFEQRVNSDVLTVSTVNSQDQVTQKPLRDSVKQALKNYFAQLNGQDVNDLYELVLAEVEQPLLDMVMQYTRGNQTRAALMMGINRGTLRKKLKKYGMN

[4] = molecular target: RNA polymerase (Escherichia coli) (UniProt P0A7Z4+P0A8V2+P0A8T7+P0A800+P00579)
[5] = molecular target: FNR D154A;RNA polymerase D154A (Escherichia coli K-12?;Escherichia coli) (UniProt P0A9E5+P0A7Z4+P0A8V2+P0A8T7+P0A800+P00579)
[6] = molecular target: Fis;FNR D154A;RNA polymerase D154A (Escherichia coli K-12?;Escherichia coli K-12?;Escherichia coli) (UniProt P0A6R3+P0A9E5+P0A7Z4+P0A8V2+P0A8T7+P0A800+P00579)

Sequence | binding [1] | binding [2] | binding [3] | binding [4] | binding [5] | binding [6]
AATTCCTGACTAACTCTAAAGTGGTATTTTACATGCACTTACAATTGATTAAAGACAACATTCACAGTGTGGTTATTTGTTACACTTAGGGGCGAGCAATGTA / AGCTTACATTGCTCGCCCCTAAGTGTAACAAATAACCACACTGTGAATGTTGTCTTTAATCAATTGTAAGTGCATGTAAAATACCACTTTAGAGTTAGTCAGG [pnrf97 EHEC] | binds | binds | binds | – | – | –
AGCTTACATTGCTCGCCCCTATGTGTAACAAATAACCACACTGTGAATGTTGTCTTTAATCAATTGTAAGTGCATGTAAAATACCACTTTAGAGTTAGTCAGG / AATTCCTGACTAACTCTAAAGTGGTATTTTACATGCACTTACAATTGATTAAAGACAACATTCACAGTGTGGTTATTTGTTACACATAGGGGCGAGCAATGTA [pnrf97 E. coli K-12] | binds | binds | binds | binds | binds more weakly | binds more weakly

Source: paper PMC5434802
